# Residue numbers refer to the chain shown, from its start.
# B1: VHHSI52 (VHH)
# VHH: GGGLVQAGGSLRLSCAASGRTFYNYAMGWFRQAPGKEREFVAAISWSGGSTLYTDSVKGRFTISRANGQNTVYLQMNSLKPEDTAVYYCAADADAQPMGIIENYDYWGQG
# notes: also called clone SI52; not shown: His6, C-terminal, kept
# B2: VHHSI57 (VHH)
# VHH: B1 VHH with F22L, L52E, T54A, G68A, T71K, I100V
# notes: also called clone SI57; not shown: His6, C-terminal, kept
# B3: VHHSI96 (VHH)
# VHH: B1 VHH with R20P, L52Y, T54A, G68A, Q69H
# notes: also called clone SI96; not shown: His6, C-terminal, kept
# B4: VHHSI14 (VHH)
# VHH: B1 VHH with T54A, G68A, S78K, I100V
# notes: also called clone SI14; VHHS14; not shown: His6, C-terminal, kept
# B5: VHH clone WI58 (VHH)
# VHH: GGGLVQAGGSLRLSCAASGLTLGNYAMGWFRQAPGKERELVAAISWSGGSTYYPDSVKGRFTISRDNAKNTVYLQMNSLKPEDTAVYYCAADGQLVPLPRLSDGVDYWGKG
# notes: not shown: His6, C-terminal, kept
# Biological target: recombinant TcTS clone TcTS-12 (Trypanosoma cruzi (Cl-Brener strain))
# Experiment: not given
# Details: not given
row,Binder,other [% inhibition]
1,B1,57.2
2,B2,57.2
3,B3,59.5

# Biological target: recombinant TcTS clone TcTS-15 (Trypanosoma cruzi (Cl-Brener strain))
# Experiment: not given
# Details: not given
row,Binder,other [% inhibition]
1,B1,68.7
2,B2,81.2
3,B3,67.4

# Biological target: recombinant TcTS clone TcTS-24 (Trypanosoma cruzi (Cl-Brener strain))
# Experiment: not given
# Details: not given
row,Binder,other [% inhibition]
1,B1,98
2,B2,98.4
3,B3,94.2

# Biological target: recombinant TcTS clone TcTS-46 (Trypanosoma cruzi (Cl-Brener strain))
# Experiment: not given
# Details: not given
row,Binder,other [% inhibition]
1,B1,38.9
2,B2,31.7
3,B3,34.8

# Biological target: recombinant TcTS clone TcTS-49 (Trypanosoma cruzi (Cl-Brener strain))
# Experiment: not given
# Details: not given
row,Binder,other [% inhibition]
1,B1,49
2,B2,51.1
3,B3,24.4

# Biological target: T1, recombinant Trypanosoma cruzi trans-sialidase TcTS611/2 (Trypanosoma cruzi, clone TcTS611/2 …, UniProt Q26966)
# T1 construct: Trypanosoma cruzi trans-sialidase (TcTS), clone 611/2: entire globular core of TcTS without SAPA repeats; also called recombinant TcTS; pTrcTS611/2
# Experiment: IAsys biosensor
# Details: both partners purified
Binder,Kd [nM],koff [s⁻¹],kon [M⁻¹ s⁻¹]
B1,69,0.0103,149000
B2,86.3,0.0143,165000
B4,22.3,0.00265,119000
B3,48.4,0.017,352000

# Biological target: T1, recombinant Trypanosoma cruzi …
# Experiment: cell-based or functional assay
# Details: not given
row,Binder,other [% inhibition]
1,B1,81.3
2,B2,83.3
3,B3,80.5

# Biological target: T1, recombinant Trypanosoma cruzi …
# Experiment: far-Western, overlay or dot blot; 300 ng of each His-tagged VHH spotted on nitrocellulose, probed with native TcTS611/2, revealed with rabbit anti-TcTS serum and HRP secondary
# Details: both partners purified
row,Binder,binding result
1,B5,binds

# From paper PMC2568053, “Relevance of the Diversity among Members of the Trypanosoma Cruzi Trans-Sialidase Family Analyzed with Camelids Single-Domain Antibodies” (PLoS ONE, 2008)
